# Experimental data from IntAct's records for PubMed 20961850.
# B1: Phospholipid-transporting ATPase IC (Homo sapiens), O43520 (parent)
# chain: MSTERDSETTFDEDSQPNDEVVPYSDDETEDELDDQGSAVEPEQNRVNREAEENREPFRKECTWQVKANDRKYHEQPHFMNTKFLCIKESKYANNAIKTYKYNAFTFIPMNLFEQFKRAANLYFLALLILQAVPQISTLAWYTTLVPLLVVLGVTAIKDLVDDVARHKMDKEINNRTCEVIKDGRFKVAKWKEIQVGDVIRLKKNDFVPADILLLSSSEPNSLCYVETAELDGETNLKFKMSLEITDQYLQREDTLATFDGFIECEEPNNRLDKFTGTLFWRNTSFPLDADKILLRGCVIRNTDFCHGLVIFAGADTKIMKNSGKTRFKRTKIDYLMNYMVYTIFVVLILLSAGLAIGHAYWEAQVGNSSWYLYDGEDDTPSYRGFLIFWGYIIVLNTMVPISLYVSVEVIRLGQSHFINWDLQMYYAEKDTPAKARTTTLNEQLGQIHYIFSDKTGTLTQNIMTFKKCCINGQIYGDHRDASQHNHNKIEQVDFSWNTYADGKLAFYDHYLIEQIQSGKEPEVRQFFFLLAVCHTVMVDRTDGQLNYQAASPDEGALVNAARNFGFAFLARTQNTITISELGTERTYNVLAILDFNSDRKRMSIIVRTPEGNIKLYCKGADTVIYERLHRMNPTKQETQDALDIFANETLRTLCLCYKEIEEKEFTEWNKKFMAASVASTNRDEALDKVYEEIEKDLILLGATAIEDKLQDGVPETISKLAKADIKIWVLTGDKKETAENIGFACELLTEDTTICYGEDINSLLHARMENQRNRGGVYAKFAPPVQESFFPPGGNRALIITGSWLNEILLEKKTKRNKILKLKFPRTEEERRMRTQSKRRLEAKKEQRQKNFVDLACECSAVICCRVTPKQKAMVVDLVKRYKKAITLAIGDGANDVNMIKTAHIGVGISGQEGMQAVMSSDYSFAQFRYLQRLLLVHGRWSYIRMCKFLRYFFYKNFAFTLVHFWYSFFNGYSAQTAYEDWFITLYNVLYTSLPVLLMGLLDQDVSDKLSLRFPGLYIVGQRDLLFNYKRFFVSLLHGVLTSMILFFIPLGAYLQTVGQDGEAPSDYQSFAVTIASALVITVNFQIGLDTSYWTFVNAFSIFGSIALYFGIMFDFHSAGIHVLFPSAFQFTGTASNALRQPYIWLTIILAVAVCLLPVVAIRFLSMTIWPSESDKIQKHRKRLKAEEQWQRRQQVFRRGVSTRRSAYAFSHQRGYADLISSGRSIRKKRSPLDAIVADGTAEYRRTGDS
# partner: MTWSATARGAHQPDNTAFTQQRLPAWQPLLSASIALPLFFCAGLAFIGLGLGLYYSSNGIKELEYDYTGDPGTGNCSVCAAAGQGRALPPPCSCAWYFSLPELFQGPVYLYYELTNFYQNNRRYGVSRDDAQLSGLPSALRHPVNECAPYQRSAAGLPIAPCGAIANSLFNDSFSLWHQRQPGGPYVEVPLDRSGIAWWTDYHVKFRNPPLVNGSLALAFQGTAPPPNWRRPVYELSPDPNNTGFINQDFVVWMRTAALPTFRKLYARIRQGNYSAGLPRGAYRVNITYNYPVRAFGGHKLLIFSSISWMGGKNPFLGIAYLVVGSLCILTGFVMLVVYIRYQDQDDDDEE
# B2: Phospholipid-transporting ATPase IC (Homo sapiens), O43520 (parent)
# chain: B1 chain
# partner: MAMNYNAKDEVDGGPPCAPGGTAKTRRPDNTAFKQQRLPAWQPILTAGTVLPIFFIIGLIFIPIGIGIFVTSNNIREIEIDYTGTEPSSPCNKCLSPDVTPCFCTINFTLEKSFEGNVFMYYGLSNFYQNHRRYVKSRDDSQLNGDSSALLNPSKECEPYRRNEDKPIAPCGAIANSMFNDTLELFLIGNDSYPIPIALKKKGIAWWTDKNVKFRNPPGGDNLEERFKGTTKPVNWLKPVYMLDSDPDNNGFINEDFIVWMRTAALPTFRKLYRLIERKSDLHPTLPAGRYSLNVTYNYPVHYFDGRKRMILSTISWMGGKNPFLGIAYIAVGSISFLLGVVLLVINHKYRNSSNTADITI
# B3: Phospholipid-transporting ATPase ID (Homo sapiens), P98198 (parent)
# chain: MTVPKEMPEKWARAQAPPSWSRKKPSWGTEEERRARANDREYNEKFQYASNCIKTSKYNILTFLPVNLFEQFQEVANTYFLFLLILQLIPQISSLSWFTTIVPLVLVLTITAVKDATDDYFRHKSDNQVNNRQSQVLINGILQQEQWMNVCVGDIIKLENNQFVAADLLLLSSSEPHGLCYIETAELDGETNMKVRQAIPVTSELGDISKLAKFDGEVICEPPNNKLDKFSGTLYWKENKFPLSNQNMLLRGCVLRNTEWCFGLVIFAGPDTKLMQNSGRTKFKRTSIDRLMNTLVLWIFGFLVCMGVILAIGNAIWEHEVGMRFQVYLPWDEAVDSAFFSGFLSFWSYIIILNTVVPISLYVSVEVIRLGHSYFINWDKKMFCMKKRTPAEARTTTLNEELGQVEYIFSDKTGTLTQNIMVFNKCSINGHSYGDVFDVLGHKAELGERPEPVDFSFNPLADKKFLFWDPSLLEAVKIGDPHTHEFFRLLSLCHTVMSEEKNEGELYYKAQSPDEGALVTAARNFGFVFRSRTPKTITVHEMGTAITYQLLAILDFNNIRKRMSVIVRNPEGKIRLYCKGADTILLDRLHHSTQELLNTTMDHLNEYAGEGLRTLVLAYKDLDEEYYEEWAERRLQASLAQDSREDRLASIYEEVENNMMLLGATAIEDKLQQGVPETIALLTLANIKIWVLTGDKQETAVNIGYSCKMLTDDMTEVFIVTGHTVLEVREELRKAREKMMDSSRSVGNGFTYQDKLSSSKLTSVLEAVAGEYALVINGHSLAHALEADMELEFLETACACKAVICCRVTPLQKAQVVELVKKYKKAVTLAIGDGANDVSMIKTAHIGVGISGQEGIQAVLASDYSFSQFKFLQRLLLVHGRWSYLRMCKFLCYFFYKNFAFTMVHFWFGFFCGFSAQTVYDQYFITLYNIVYTSLPVLAMGVFDQDVPEQRSMEYPKLYEPGQLNLLFNKREFFICIAQGIYTSVLMFFIPYGVFADATRDDGTQLADYQSFAVTVATSLVIVVSVQIGLDTGYWTAINHFFIWGSLAVYFAILFAMHSNGLFDMFPNQFRFVGNAQNTLAQPTVWLTIVLTTVVCIMPVVAFRFLRLNLKPDLSDTVRYTQLVRKKQKAQHRCMRRVGRTGSRRSGYAFSHQEGFGELIMSGKNMRLSSLALSSFTTRSSSSWIESLRRKKSDSASSPSGGADKPLKG
# partner: B2 partner
# B4: Phospholipid-transporting ATPase ID (Homo sapiens), P98198 (parent)
# chain: B3 chain
# partner: B1 partner
# Variants of: B1
# Settings: with cc50b_human TMEM30B
row,Variant,effect of a mutation on the interaction
1,D454N,decreasing interaction strength

# Variants of: B2
# Settings: with cc50a_human TMEM30A
row,Variant,effect of a mutation on the interaction
1,D454N,decreasing interaction strength

# Variants of: B3
# Settings: with cc50a_human TMEM30A
row,Variant,effect of a mutation on the interaction
1,D411N,decreasing interaction strength

# Variants of: B4
# Settings: with cc50b_human TMEM30B
row,Variant,effect of a mutation on the interaction
1,D411N,with no effect
